Values belong to the binder of their own block, whether it stands above or below them.
Tests used:
Test in all cases: crystal structure
Fab^S1CE1-EPR-1 = biological target: Fab^S1CE1-EPR-1
Fab^S1CE4-EPR-1 = biological target: Fab^S1CE4-EPR-1
[1] = biological target: extracellular domain (ECD) of the human erythropoietin receptor (EPOR) with a C-terminal hexahistidine tag (human, UniProt P19235)
Fab^S1CE3-EPR-1 = biological target: Fab^S1CE3-EPR-1

Sequence of extracellular domain (ECD) of the human erythropoietin receptor (EPOR) with a C-terminal hexahistidine tag (P19235 25-250): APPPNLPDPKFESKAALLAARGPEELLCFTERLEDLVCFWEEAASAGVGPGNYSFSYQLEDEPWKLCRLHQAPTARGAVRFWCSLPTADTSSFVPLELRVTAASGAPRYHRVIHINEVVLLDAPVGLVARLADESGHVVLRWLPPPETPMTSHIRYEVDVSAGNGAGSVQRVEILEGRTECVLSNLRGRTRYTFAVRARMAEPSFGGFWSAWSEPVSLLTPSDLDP

stoichiometry N (Fab^S1CE1-EPR-1): 2
B1: Fab^S1CE1-EPR-1 (Fab, V domains shown)
VH: EVQLVESGGGLVQPGGSLRLSCAASGFNLRSYYMHWVRQAPGKGLEWVASISPYYSYTYYADSVKGRFTISADTSKNTAYLQMNSLRAEDTAVYYCARHGYGAMDYWGQGTLVTVFN
VL: DIQMTQSPSSLSASVGDRVTITCRASQSVSSAVAWYQQKPGKAPKLLIYSASSLYSGVPSRFSGSRSGTDFTLTISSLQPEDFATYYCQQSSYSLITFGQGTKVEIK

stoichiometry N (Fab^S1CE4-EPR-1): 2
B2: Fab^S1CE4-EPR-1 (Fab, V domains shown)
VH: EVQLVESGGGLVQPGGSLRLSCAASGFNLRSYYMHWVRQAPGKGLEWVASISPYYSYTYYADSVKGRFTISADTSKNTAYLQMNSLRAEDTAVYYCARHGYGAMDYWGQGTLVTVFN
VL: DIQMTQSPSSLSASVGDRVTITCRASQSVSSAVAWYQQKPGKAPKLLIYSASSLYSGVPSRFSGSRSGTDFTLTISSLQPEDFATYYCQQSSYSLITFGQGTKVEIK

binding result [1]: binds
B3: Fab^S1CE-EPR-1 (Fab, V domains shown)
VH: EVQLVESGGGLVQPGGSLRLSCAASGFNLRSYYMHWVRQAPGKGLEWVASISPYYSYTYYADSVKGRFTISADTSKNTAYLQMNSLRAEDTAVYYCARHGYGAMDYWGQGTLVTVFN
VL: DIQMTQSPSSLSASVGDRVTITCRASQSVSSAVAWYQQKPGKAPKLLIYSASSLYSGVPSRFSGSRSGTDFTLTISSLQPEDFATYYCQQSSYSLITFGQGTKVEIK

stoichiometry N (Fab^S1CE3-EPR-1): 2
B4: Fab^S1CE3-EPR-1 (Fab, V domains shown)
VH: EVQLVESGGGLVQPGGSLRLSCAASGFNLRSYYMHWVRQAPGKGLEWVASISPYYSYTYYADSVKGRFTISADTSKNTAYLQMNSLRAEDTAVYYCARHGYGAMDYWGQGTLVTVFN
VL: DIQMTQSPSSLSASVGDRVTITCRASQSVSSAVAWYQQKPGKAPKLLIYSASSLYSGVPSRFSGSRSGTDFTLTISSLQPEDFATYYCQQSSYSLITFGQGTKVEIK
